Data reported in publication PMC2270323, “Phosphorylation-Independent Regulation of the Diguanylate Cyclase WspR” (PLoS Biology, 2008).
Changes are numbered by the printed parent chain. In names and notes the source's numbering stands. Several values for one entry are separate records, joined by “and”; a condition that tells them apart may be missing. Equal entries are not always repeated.

How the values were obtained:
[1] = target: WspR from P. syringae DC3000 (full length) (P. syringae DC3000); assay: crystal structure; unpublished data: crystal structure of the WspR homolog from P. syringae
[2] = target: the molecule itself; assay: crystal structure; c-di-GMP-bound full-length WspR, 2.4 Å, space group C2, two molecules in the asymmetric unit; hanging drop, 0.1 M Tris-Cl pH 8.0, 2.9 M NaCl, 15% xylitol, 20 °C
[3] = target: the molecule itself; assay: SEC; c-di-GMP-bound protein as purified, 0.24 mM; Superdex 200 10/300; 25 mM Tris-Cl pH 7.5, 100 mM NaCl, 1 mM DTT
[4] = target: the molecule itself; assay: SEC; unpublished data: lysates of E. coli expressing WspR^R242A or WspR^GGAAF, gel filtration
[5] = target: the molecule itself; assay: SEC-MALS; nucleotide-free mutants as purified, 4 mg/ml (approximately 0.1 mM); Shodex KW-803; 25 mM Tris-HCl pH 7.5, 100 mM NaCl, 1 mM DTT
[6] = target: the molecule itself; assay: SEC; nucleotide-free protein (wild type: PDE-treated, PDE and nucleotide removed; GGAAF as purified), 0.08-0.24 mM; Superdex 200 10/300; 25 mM Tris-Cl pH 7.5, 100 mM NaCl, 1 mM DTT; distribution depends on protein concentration
[7] = target: the molecule itself; assay: SEC-MALS; stalk mutants as purified (c-di-GMP bound), approximately 0.1 mM; Shodex KW-803; 25 mM Tris-Cl pH 7.5, 100 mM NaCl, 1 mM DTT

## WspR from P. syringae DC3000 (full length) (enzyme)
[1]
  stoichiometry N: 4

B1: WspR from P. aeruginosa, wild type (full length) (enzyme)
chain: MHNPHESKTDLGAPLDGAVMVLLVDDQAMIGEAVRRSLASEAGIDFHFCSDPQQAVAVANQIKPTVILQDLVMPGVDGLTLLAAYRGNPATRDIPIIVLSTKEEPTVKSAAFAAGANDYLVKLPDAIELVARIRYHSRSYIALQQRDEAYRALRESQQQLLETNLVLQRLMNSDGLTGLSNRRHFDEYLEMEWRRSLREQSQLSLLMIDVDYFKSYNDTFGHVAGDEALRQVAGAIREGCSRSSDLAARYGGEEFAMVLPGTSPGGARLLAEKVRRTVESLQISHDQPRPGSHLTVSIGVSTLVPGGGGQTFRVLIEMADQALYQAKNNGRNQVGLMEQPVPPAPAG
notes: the nucleotide-free form was made by treatment with the PDE SadR/RocR and repurification; The nucleotide state is told in each assay's format; also called WspR^wt; PA3702; source: E. coli BL21(DE3), purified (NiNTA, SEC); also E. coli BL21, in lysate; not shown: His6, C-terminal, kept
[2]
  stoichiometry N: 4
[3]
  stoichiometry N: 2

B2: WspR^R242A (I-site mutant of P. aeruginosa WspR) (enzyme)
chain: B1 chain with R242A
notes: WspR, P. aeruginosa PAO1, locus tag PA3702, with R242A; Purifies essentially nucleotide-free; source: E. coli BL21(DE3), purified (NiNTA, SEC); also E. coli BL21, in lysate; not shown: His6, C-terminal, kept
[4]
  stoichiometry N: 2
[5]
  stoichiometry N: 4

B3: WspR^GGAAF (catalytically dead mutant of P. aeruginosa WspR) (enzyme)
chain: B1 chain with E253A, E254A
notes: WspR, P. aeruginosa PAO1, locus tag PA3702; the two central glutamates of the GGEEF motif (residues 251-255) replaced by alanines; Purifies nucleotide-free; source: E. coli BL21(DE3), purified (NiNTA, SEC); also E. coli BL21, in lysate; not shown: His6, C-terminal, kept
[6]
  stoichiometry N: 4 and 2

B4: WspR^R198A (I-site mutant of P. aeruginosa WspR) (enzyme)
chain: B1 chain with R198A
notes: WspR, P. aeruginosa PAO1, locus tag PA3702, with R198A; Purifies essentially nucleotide-free; source: E. coli BL21(DE3), purified (NiNTA, SEC)
[5]
  stoichiometry N: 2 and 4

B5: WspR^L170D (stalk mutant of P. aeruginosa WspR) (enzyme)
chain: B1 chain with L170D
notes: WspR, P. aeruginosa PAO1, locus tag PA3702, with L170D; source: E. coli, purified
[7]
  stoichiometry N: 2 and 4
